Results taken from patent publication US20140087995A1 (published 2014).
Numbered stars: 1 amine (or outer) side, 2 acyl side, 3 side chain; on linkers, the order of the positions; unused ones are H or OH. Bridge positions count the residues as written; N and C are the ends. Side chains are listed from the residue outwards. Ends that are not written are not given here. * marks the point of attachment. C20 diacid = O=C(O)CCCCCCCCCCCCCCCCCCC(=O)*; γGlu = O=C(O)[C@H](CCC(=O)[*:2])N[*:1]; AEEA = NCCOCCOCC(=O)O

T1: human amylin receptor (amylin 3(a) receptor: human calcitonin receptor plus RAMP-3) (human, UniProt P30988 25-474; O60896 24-148)
T1 construct: whole, on cells; functional assay (II)a used the whole cells; also called hAmylin-R; hAmylinR
T1 sequence (looked up) 1: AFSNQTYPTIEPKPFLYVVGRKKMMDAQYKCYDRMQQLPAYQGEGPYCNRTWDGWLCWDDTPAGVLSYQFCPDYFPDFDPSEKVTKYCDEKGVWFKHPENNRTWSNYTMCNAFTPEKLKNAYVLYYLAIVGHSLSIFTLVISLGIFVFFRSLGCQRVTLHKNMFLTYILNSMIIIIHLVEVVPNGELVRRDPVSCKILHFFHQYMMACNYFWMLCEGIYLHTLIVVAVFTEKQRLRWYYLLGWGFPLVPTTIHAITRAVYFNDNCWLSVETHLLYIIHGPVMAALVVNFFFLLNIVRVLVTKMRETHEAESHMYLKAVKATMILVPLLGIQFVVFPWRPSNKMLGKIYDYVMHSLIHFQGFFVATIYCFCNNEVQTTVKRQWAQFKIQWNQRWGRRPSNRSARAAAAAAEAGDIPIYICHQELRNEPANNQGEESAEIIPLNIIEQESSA
T1 sequence (looked up) 2: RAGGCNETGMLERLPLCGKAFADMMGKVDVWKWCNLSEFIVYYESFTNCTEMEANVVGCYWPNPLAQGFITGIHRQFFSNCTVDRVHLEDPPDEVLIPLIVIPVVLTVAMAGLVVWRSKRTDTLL

T2: human calcitonin receptor (human, UniProt P30988 25-474)
T2 sequence (looked up): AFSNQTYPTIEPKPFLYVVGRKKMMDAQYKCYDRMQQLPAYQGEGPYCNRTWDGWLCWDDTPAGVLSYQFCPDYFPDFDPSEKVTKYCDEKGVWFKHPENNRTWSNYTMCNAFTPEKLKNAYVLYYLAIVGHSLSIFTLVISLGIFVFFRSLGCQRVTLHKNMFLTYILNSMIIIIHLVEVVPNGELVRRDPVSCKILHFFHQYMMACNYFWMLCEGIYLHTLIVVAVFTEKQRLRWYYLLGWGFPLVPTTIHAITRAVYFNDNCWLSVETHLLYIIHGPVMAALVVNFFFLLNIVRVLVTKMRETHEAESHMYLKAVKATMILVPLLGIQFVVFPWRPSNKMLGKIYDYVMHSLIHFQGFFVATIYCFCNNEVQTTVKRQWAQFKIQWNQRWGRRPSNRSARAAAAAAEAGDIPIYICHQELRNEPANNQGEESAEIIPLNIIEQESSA


Legend:
[1] = target: T1, human amylin receptor (amylin 3(a) …); test: SPA competition binding, displacement of 125I-rat amylin, membranes of BHK amylin 3(a)/CRE-luc cells
Experimental: The binding assay was performed using scintillation proximity assay (SPA) beads (RPNQ0001) from PerkinElmer and cell membranes from the Amylin 3(a)/CRE-luc cells (as described in Assay (II)) were used. Membranes were prepared in the following way; the cells were rinsed with PBS and incubated with Versene for approximately 5 min before harvesting. The cells were flushed with PBS and the cell-suspension was centrifuged for 5 min at 1000 rpm. Cells were homogenized (ultrathurrax) in a buffer containing 20 mM Na-HEPES and 10 mM EDTA (pH 7.4) and centrifuged at 20.000 rpm for 15 min. The resulting pellet was resuspended, homogenized and centrifuged (20.000 rpm, 15 min) in a buffer containing 20 mM Na-HEPES and 0.1 mM EDTA (pH 7.4, buffer 2). The resulting pellet was resuspended in buffer 2 and protein concentration was measured (BCA protein Assay, Pierce). The homogenate was kept cold during the whole procedure. The membranes were kept at −80° C. until use. The assay was performed in a 384 well Optiplate (PerkinElmer) in a total volume of 40 ul. Membranes were mixed with SPA beads. Final concentration of membranes 35 ng/μL final and SPA beads was 0.05 mg/well. Test-compounds were dissolved in DMSO and further diluted in assay buffer (50 mM Hepes, pH 7.4, 1 mM CaCl2, 5 mM MgCl₂, 0.1% OA and 0.02% Tween20). […] The final mixture was incubated with shaking at 400 rpm for 120 min at 25° C. prior to centrifugation (1500 rpm, 10 min). Samples were analyzed on TopCounter™ (Packard). The IC₅₀ was calculated using (one site binding competition analysis) GraphPad Prism5 as a measure of receptor affinity.

[2] = target: T1, human amylin receptor (amylin 3(a) …); test: cell-based or functional assay
[3] = target: T2, human calcitonin receptor; test: cell-based or functional assay

Row | IC50 [1] [nM] | Ratio hCT/hAmylin funct. [2] | hAmylin-R funct. EC50 (pM) [2] [pM] | hCTR funct. EC50 (pM) [3] [pM] | Binder
1 | 0.532 | 29.9 | 212 | 6340 | K([AEEA-γGlu-C20 diacid])CNTATCATQRLANFLRHSSPNFGAIPSSTNVGSETY-NH2 (disulfide 2-7; N-terminus assumed; SMILES CC[C@H](C)[C@H](NC(=O)[C@H](C)NC(=O)CNC(=O)[C@H](Cc1ccccc1)NC(=O)[C@H](CC(N)=O)NC(=O)[C@@H]1CCCN1C(=O)[C@H](CO)NC(=O)[C@H](CO)NC(=O)[C@H](Cc1c[nH]cn1)NC(=O)[C@H](CCCNC(=N)N)NC(=O)[C@H](CC(C)C)NC(=O)[C@H](Cc1ccccc1)NC(=O)[C@H](CC(N)=O)NC(=O)[C@H](C)NC(=O)[C@H](CC(C)C)NC(=O)[C@H](CCCNC(=N)N)NC(=O)[C@H](CCC(N)=O)NC(=O)[C@@H](NC(=O)[C@H](C)NC(=O)[C@@H]1CSSC[C@H](NC(=O)[C@@H](N)CCCCNC(=O)COCCOCCNC(=O)CC[C@H](NC(=O)CCCCCCCCCCCCCCCCCCC(=O)O)C(=O)O)C(=O)N[C@@H](CC(N)=O)C(=O)N[C@@H]([C@@H](C)O)C(=O)N[C@@H](C)C(=O)N[C@@H]([C@@H](C)O)C(=O)N1)[C@@H](C)O)C(=O)N1CCC[C@H]1C(=O)N[C@@H](CO)C(=O)N[C@@H](CO)C(=O)N[C@H](C(=O)N[C@@H](CC(N)=O)C(=O)N[C@H](C(=O)NCC(=O)N[C@@H](CO)C(=O)N[C@@H](CCC(=O)O)C(=O)N[C@H](C(=O)N[C@@H](Cc1ccc(O)cc1)C(N)=O)[C@@H](C)O)C(C)C)[C@@H](C)O, also called compound 26)
2 | 0.837 | 22.6 | 133 | 3000 | K([γGlu-C20 diacid])CNTATCATQRLANFLRHSSPNFGAIPSSTNVGSETY-NH2 (disulfide 2-7; N-terminus assumed; SMILES CC[C@H](C)[C@H](NC(=O)[C@H](C)NC(=O)CNC(=O)[C@H](Cc1ccccc1)NC(=O)[C@H](CC(N)=O)NC(=O)[C@@H]1CCCN1C(=O)[C@H](CO)NC(=O)[C@H](CO)NC(=O)[C@H](Cc1c[nH]cn1)NC(=O)[C@H](CCCNC(=N)N)NC(=O)[C@H](CC(C)C)NC(=O)[C@H](Cc1ccccc1)NC(=O)[C@H](CC(N)=O)NC(=O)[C@H](C)NC(=O)[C@H](CC(C)C)NC(=O)[C@H](CCCNC(=N)N)NC(=O)[C@H](CCC(N)=O)NC(=O)[C@@H](NC(=O)[C@H](C)NC(=O)[C@@H]1CSSC[C@H](NC(=O)[C@@H](N)CCCCNC(=O)CC[C@H](NC(=O)CCCCCCCCCCCCCCCCCCC(=O)O)C(=O)O)C(=O)N[C@@H](CC(N)=O)C(=O)N[C@@H]([C@@H](C)O)C(=O)N[C@@H](C)C(=O)N[C@@H]([C@@H](C)O)C(=O)N1)[C@@H](C)O)C(=O)N1CCC[C@H]1C(=O)N[C@@H](CO)C(=O)N[C@@H](CO)C(=O)N[C@H](C(=O)N[C@@H](CC(N)=O)C(=O)N[C@H](C(=O)NCC(=O)N[C@@H](CO)C(=O)N[C@@H](CCC(=O)O)C(=O)N[C@H](C(=O)N[C@@H](Cc1ccc(O)cc1)C(N)=O)[C@@H](C)O)C(C)C)[C@@H](C)O, also called compound 27) [N^ε1-[(4S)-4-carboxy-4-(19-carboxynonadecanoylamino)butanoyl]-[Arg17,Pro21,Pro27,Glu35]-h-amylin]
3 | 0.115 | 35 | 89 | 3120 | K([AEEA-γGlu-C20 diacid])CNTATCATQRLANFLRHSSPNFGAIPSSTPVGSHTY-NH2 (disulfide 2-7; N-terminus assumed; SMILES CC[C@H](C)[C@H](NC(=O)[C@H](C)NC(=O)CNC(=O)[C@H](Cc1ccccc1)NC(=O)[C@H](CC(N)=O)NC(=O)[C@@H]1CCCN1C(=O)[C@H](CO)NC(=O)[C@H](CO)NC(=O)[C@H](Cc1c[nH]cn1)NC(=O)[C@H](CCCNC(=N)N)NC(=O)[C@H](CC(C)C)NC(=O)[C@H](Cc1ccccc1)NC(=O)[C@H](CC(N)=O)NC(=O)[C@H](C)NC(=O)[C@H](CC(C)C)NC(=O)[C@H](CCCNC(=N)N)NC(=O)[C@H](CCC(N)=O)NC(=O)[C@@H](NC(=O)[C@H](C)NC(=O)[C@@H]1CSSC[C@H](NC(=O)[C@@H](N)CCCCNC(=O)COCCOCCNC(=O)CC[C@H](NC(=O)CCCCCCCCCCCCCCCCCCC(=O)O)C(=O)O)C(=O)N[C@@H](CC(N)=O)C(=O)N[C@@H]([C@@H](C)O)C(=O)N[C@@H](C)C(=O)N[C@@H]([C@@H](C)O)C(=O)N1)[C@@H](C)O)C(=O)N1CCC[C@H]1C(=O)N[C@@H](CO)C(=O)N[C@@H](CO)C(=O)N[C@H](C(=O)N1CCC[C@H]1C(=O)N[C@H](C(=O)NCC(=O)N[C@@H](CO)C(=O)N[C@@H](Cc1c[nH]cn1)C(=O)N[C@H](C(=O)N[C@@H](Cc1ccc(O)cc1)C(N)=O)[C@@H](C)O)C(C)C)[C@@H](C)O, also called compound 57)
4 | 0.088 | 21.9 | 47 | 1030 | K([AEEA-γGlu-C20 diacid])CNTATCATQRLANFLRHSSPNFGAIPSSTNVGPHTY-NH2 (disulfide 2-7; N-terminus assumed; SMILES CC[C@H](C)[C@H](NC(=O)[C@H](C)NC(=O)CNC(=O)[C@H](Cc1ccccc1)NC(=O)[C@H](CC(N)=O)NC(=O)[C@@H]1CCCN1C(=O)[C@H](CO)NC(=O)[C@H](CO)NC(=O)[C@H](Cc1c[nH]cn1)NC(=O)[C@H](CCCNC(=N)N)NC(=O)[C@H](CC(C)C)NC(=O)[C@H](Cc1ccccc1)NC(=O)[C@H](CC(N)=O)NC(=O)[C@H](C)NC(=O)[C@H](CC(C)C)NC(=O)[C@H](CCCNC(=N)N)NC(=O)[C@H](CCC(N)=O)NC(=O)[C@@H](NC(=O)[C@H](C)NC(=O)[C@@H]1CSSC[C@H](NC(=O)[C@@H](N)CCCCNC(=O)COCCOCCNC(=O)CC[C@H](NC(=O)CCCCCCCCCCCCCCCCCCC(=O)O)C(=O)O)C(=O)N[C@@H](CC(N)=O)C(=O)N[C@@H]([C@@H](C)O)C(=O)N[C@@H](C)C(=O)N[C@@H]([C@@H](C)O)C(=O)N1)[C@@H](C)O)C(=O)N1CCC[C@H]1C(=O)N[C@@H](CO)C(=O)N[C@@H](CO)C(=O)N[C@H](C(=O)N[C@@H](CC(N)=O)C(=O)N[C@H](C(=O)NCC(=O)N1CCC[C@H]1C(=O)N[C@@H](Cc1c[nH]cn1)C(=O)N[C@H](C(=O)N[C@@H](Cc1ccc(O)cc1)C(N)=O)[C@@H](C)O)C(C)C)[C@@H](C)O, also called compound 58)
